Results as given in patent publication US20220153873A1 (ICAHN SCHOOL OF MEDICINE AT MOUNT SINAI, published 2022).
Like-named read-outs stand apart in the source and are kept apart here.

B1: recombinant 4F11 IgG2b (antibody, V domains shown)
VH: DVKLVESGGDLVKPGGSLKLSCAASGFTFSAYSMSWVRQTPERRLEWVATINTGGSFTYYPDSVKGRFTISRDNAKNTLYLQMSSLKSEDTAMYFCTRVSDYGNSAYFPYWGQGTLVIVSA
VL: QVVLTQSPALISASPGEKVTMTCSASSNVNYMSWYQQRPRSSPKPWIYLTSKLASGVPPRFSGSGSGTSYSLTISSMEAEDVATYYCQQWSSDPQTFGGGTKVEIK
B2: recombinant 4F11 IgG1 (antibody, V domains shown)
VH: B1 VH
VL: B1 VL
B3: recombinant 4F11 monomeric IgA (antibody, V domains shown)
VH: B1 VH
VL: B1 VL
B4: 4F11 antibody (murine IgG2b, hybridoma-produced) (antibody, V domains shown)
VH: B1 VH
VL: B1 VL
notes: also called mAb 4F11; 4F11 Hybridoma
B5: recombinant 4F11 IgG2a (antibody, V domains shown)
VH: B1 VH
VL: B1 VL
B6: 1F4 antibody (murine IgG2a, hybridoma-produced) (antibody, V domains shown)
VH: QVHLQQSGSELRSPGSSVKLSCKDFDSEVFPIVYMRWIRQKPGHGFEWIGDILPSFGRTIYGEKFEDKATLDADTVSNTAYLELNSLTSEDSAIYYCARGDHGNWLAYWGQGTLVTVSA
VL: DIVMTQSHKFMSTSVGDRVTITCKASQDVSTAVAWYQQKPGQSPKLLIYWASTRHTGVPNRFTGIISGTDYTLTISSVQAEDLALYYCQQHYSAPWTFGGGTKLEIK
notes: also called mAb 1F4; IF4
B7: recombinant 1F2 IgG2a (antibody, V domains shown)
VH: QVHLQQSGPEVARPGASVKLSCKASGYTFTDYYLNWVKQRPRQGLEWIGQIHPGSTNTYYNEKFKGKATLTADKSSSTAYMQLSSLTSEDSAVYFCARSLGDGYYVYAMDYWGQGTAVTVSS
VL: DIVMTQSQKFMSTSVGDRVSVTCKASQNVVTNVVWYQQKPGQSPKPLIYSASYRYSGVPDRFTGSGSGTDFTLTISNVQSEDLAEYCCQQYHSYPFTFGSGTKLEVK
B8: 1F2 antibody (murine IgG2a, hybridoma-produced) (antibody, V domains shown)
VH: B7 VH
VL: B7 VL
notes: also called mAb 1F2; IF2
B9: recombinant 1F2 IgG2b (antibody, V domains shown)
VH: B7 VH
VL: B7 VL
B10: recombinant 1F2 IgG1 (antibody, V domains shown)
VH: B7 VH
VL: B7 VL
B11: recombinant 1F2 monomeric IgA (antibody, V domains shown)
VH: B7 VH
VL: B7 VL
B12: 4B2 antibody (murine IgG2a, hybridoma-produced) (antibody, V domains shown)
VH: QIQLVQSGPELKKPGETVKISCKASGFTFTDYPMHWVKQAPGKSLKWMGWINTETEEPTYSDDFKGRFALSLETSASTTYLQINNLKNEDTATYFCARSGYYYGSTYAWFGYWGQGTLVTVSA
VL: DVVMTQIPLSLPVSLGDQASISCRSSQSLIHTNGDTFLHWYLQKPGQSPKLLIYKVSNRFSGVPDRFTGGGSGTDFTLKISRVEAEDLGIYFCSQSALFPYTFGGGTNLEIK
notes: also called mAb 4B2
B13: 3G1 antibody (murine IgG2a, hybridoma-produced) (antibody, V domains shown)
VH: QVQLQQSGAELMKPGASVKISCKATGYKFTSYWIGWVKQRPGHGLEWCGEIFPGSGSINYNEKFKGKATFTADTSSNTAYLQLTSLTSEDSAVYYCARGEDYYGSSYGAMDYWGQGTSLTVSS
VL: DVQITQSPSYLAASPGETITINCRASKSISKYVAWYQEKPGRTNKVLIYSGSILSFGNPSRFSGSGSGTDFTLTISSLEPEDFAMYYCQQHNEYPWTFGGGTKLEIK
notes: also called mAb 3G1

Columns and labels:
[1] = molecular target: recombinant neuraminidase (rNA) of B/Malaysia/2506/04 (influenza B virus B/Malaysia/2506/04)
[2] = molecular target: recombinant neuraminidase (rNA) of B/Malaysia/2506/04 (influenza B virus B/Malaysia/2506/04); assay: ELISA, rNA B/Malaysia/2506/04 coated at 2 ug/mL
[3] = molecular target: neuraminidase of B/Lee/40 (purified whole virus) (influenza B virus B/Lee/40, UniProt P03474 1-466); assay: ELISA on purified whole virus
Chain of neuraminidase of B/Lee/40 (purified whole virus) (P03474 whole entry): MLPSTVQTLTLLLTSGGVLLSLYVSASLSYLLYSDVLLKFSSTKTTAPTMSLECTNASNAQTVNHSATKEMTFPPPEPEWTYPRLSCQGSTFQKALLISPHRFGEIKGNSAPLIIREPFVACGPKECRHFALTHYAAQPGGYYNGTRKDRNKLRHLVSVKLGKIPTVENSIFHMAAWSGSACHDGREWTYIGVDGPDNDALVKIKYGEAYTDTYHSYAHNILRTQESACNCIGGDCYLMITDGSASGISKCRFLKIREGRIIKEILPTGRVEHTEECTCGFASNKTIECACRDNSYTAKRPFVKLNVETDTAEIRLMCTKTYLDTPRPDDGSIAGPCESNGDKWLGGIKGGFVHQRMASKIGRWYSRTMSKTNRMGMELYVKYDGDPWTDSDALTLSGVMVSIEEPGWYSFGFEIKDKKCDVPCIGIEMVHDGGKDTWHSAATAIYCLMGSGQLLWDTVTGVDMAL

[4] = molecular target: recombinant neuraminidase (rNA) of B/Florida/04/06 (influenza B virus B/Florida/04/06)
[5] = molecular target: recombinant neuraminidase (rNA) of B/Florida/04/06 (influenza B virus B/Florida/04/06); assay: ELISA, rNA B/Florida/4/2006 coated at 2 ug/mL
[6] = molecular target: recombinant neuraminidase (rNA) of B/Florida/04/06 (influenza B virus B/Florida/04/06); assay: ELISA, biotinylated 1F2 on rNA B/Florida/04/2006, no competitor
[7] = molecular target: recombinant neuraminidase (rNA) of B/Florida/04/06 (influenza B virus B/Florida/04/06); remark: listed apart in the source
[8] = molecular target: recombinant neuraminidase (rNA) of B/Florida/04/06 (influenza B virus B/Florida/04/06); assay: ELISA, biotinylated 4B2 on rNA B/Florida/04/2006, no competitor
[9] = molecular target: recombinant neuraminidase (rNA) of B/Florida/04/06 (influenza B virus B/Florida/04/06); assay: ELISA, biotinylated 3G1 on rNA B/Florida/04/2006, no competitor
[10] = molecular target: neuraminidase of wild type B/Malaysia/2506/04 virus (on virus and on infected MDCK cells) (influenza B virus B/Malaysia/2506/04); assay: cell-based or functional assay

Row | Binder | Kd [1] | binding result [3] | EC50 (read off the curve) [5] | further results
1 | B1 | 0.00298 nM | – | – | EC50 (read off the curve) [2]: 0.07 µg/mL
2 | B2 | 0.00891 nM | – | – | –
3 | B3 | 0.00472 nM | – | – | –
4 | B4 | – | binds | – | EC50 (read off the curve) [2]: 0.06 µg/mL
5 | B5 | 0.00336 nM | – | – | –
6 | B6 | – | binds | – | EC50 (read off the curve) [4]: 0.04 µg/mL
7 | B7 | 0.68 nM | – | 0.03 µg/mL | –
8 | B8 | – | binds | 0.03 µg/mL | EC50 (read off the curve) [6]: 0.02 µg/mL; EC50 (read off the curve) [7]: 0.2 µg/mL
9 | B9 | 1.16 nM | – | 0.03 µg/mL | –
10 | B10 | 1.05 nM | – | 0.05 µg/mL | –
11 | B11 | 0.958 nM | – | – | –
12 | B12 | – | binds | – | EC50 (read off the curve) [8]: 0.1 µg/mL
13 | B13 | – | binds | – | EC50 (read off the curve) [9]: 0.07 µg/mL; NI activity, NA-Star assay (percent inhibition) [10]: 100%
